Patent US20150166621A1 (Hoffmann-La Roche, published 2015)
Square brackets hold non-standard residues; d marks the D form. Nle = CCCC[C@H](N)C(=O)O

Target: T1, Human eIF4E (aa 28-217) with a C-terminal His tag (human, UniProt P06730 28-217)
T1 construct: also called HH-eIF4E; eukaryotic initiation factor 4E
Experiment: TR-FRET competition vs biotin-4G2 peptide on HH-eIF4E
Method: Test peptides (1.6 mM stock in DMSO) were diluted 3 fold in series in DMSO and solutions were diluted 4 fold in Assay Buffer (50 mM NaPi, pH 6.5, 50 mM KCl, 1 mM DTT, 0.004% NP40 and 0.5 mg/ml gammaglobulin). […] The samples were incubated at room temperature for 20 minutes.
IC50 values were calculated using Condoseo software (Genedata AG, Basel, Switzerland).

T1 sequence (P06730 other isoform, or with tags, fused parts or gaps limits assumed): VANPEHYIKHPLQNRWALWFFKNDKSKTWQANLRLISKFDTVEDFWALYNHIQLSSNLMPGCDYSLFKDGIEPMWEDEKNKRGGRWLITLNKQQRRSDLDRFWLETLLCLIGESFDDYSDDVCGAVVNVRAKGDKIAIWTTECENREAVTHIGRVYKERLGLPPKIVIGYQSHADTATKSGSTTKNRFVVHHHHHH

Binder | IC50
Ac-KRYDREFLLAFQF[Nle]VYDLGLRRLRQRRRLRRERVRA-NH2 (SMILES CCCC[C@H](NC(=O)[C@H](Cc1ccccc1)NC(=O)[C@H](CCC(N)=O)NC(=O)[C@H](Cc1ccccc1)NC(=O)[C@H](C)NC(=O)[C@H](CC(C)C)NC(=O)[C@H](CC(C)C)NC(=O)[C@H](Cc1ccccc1)NC(=O)[C@H](CCC(=O)O)NC(=O)[C@H](CCCNC(=N)N)NC(=O)[C@H](CC(=O)O)NC(=O)[C@H](Cc1ccc(O)cc1)NC(=O)[C@H](CCCNC(=N)N)NC(=O)[C@H](CCCCN)NC(C)=O)C(=O)N[C@H](C(=O)N[C@@H](Cc1ccc(O)cc1)C(=O)N[C@@H](CC(=O)O)C(=O)N[C@@H](CC(C)C)C(=O)NCC(=O)N[C@@H](CC(C)C)C(=O)N[C@@H](CCCNC(=N)N)C(=O)N[C@@H](CCCNC(=N)N)C(=O)N[C@@H](CC(C)C)C(=O)N[C@@H](CCCNC(=N)N)C(=O)N[C@@H](CCC(N)=O)C(=O)N[C@@H](CCCNC(=N)N)C(=O)N[C@@H](CCCNC(=N)N)C(=O)N[C@@H](CCCNC(=N)N)C(=O)N[C@@H](CC(C)C)C(=O)N[C@@H](CCCNC(=N)N)C(=O)N[C@@H](CCCNC(=N)N)C(=O)N[C@@H](CCC(=O)O)C(=O)N[C@@H](CCCNC(=N)N)C(=O)N[C@H](C(=O)N[C@@H](CCCNC(=N)N)C(=O)N[C@@H](C)C(N)=O)C(C)C)C(C)C) [peptide of SEQ ID NO: 23] | 0.18 µM
Ac-KRYDREFLLAFQF[Nle]RRLRQRRRLRRERVRA-NH2 (SMILES CCCC[C@H](NC(=O)[C@H](Cc1ccccc1)NC(=O)[C@H](CCC(N)=O)NC(=O)[C@H](Cc1ccccc1)NC(=O)[C@H](C)NC(=O)[C@H](CC(C)C)NC(=O)[C@H](CC(C)C)NC(=O)[C@H](Cc1ccccc1)NC(=O)[C@H](CCC(=O)O)NC(=O)[C@H](CCCNC(=N)N)NC(=O)[C@H](CC(=O)O)NC(=O)[C@H](Cc1ccc(O)cc1)NC(=O)[C@H](CCCNC(=N)N)NC(=O)[C@H](CCCCN)NC(C)=O)C(=O)N[C@@H](CCCNC(=N)N)C(=O)N[C@@H](CCCNC(=N)N)C(=O)N[C@@H](CC(C)C)C(=O)N[C@@H](CCCNC(=N)N)C(=O)N[C@@H](CCC(N)=O)C(=O)N[C@@H](CCCNC(=N)N)C(=O)N[C@@H](CCCNC(=N)N)C(=O)N[C@@H](CCCNC(=N)N)C(=O)N[C@@H](CC(C)C)C(=O)N[C@@H](CCCNC(=N)N)C(=O)N[C@@H](CCCNC(=N)N)C(=O)N[C@@H](CCC(=O)O)C(=O)N[C@@H](CCCNC(=N)N)C(=O)N[C@H](C(=O)N[C@@H](CCCNC(=N)N)C(=O)N[C@@H](C)C(N)=O)C(C)C) [peptide of SEQ ID NO: 22] | 0.198 µM
Ac-ARVYDLGLRRLRQRRRLRRERVRAKRYDREFLLAFQF[Nle]-NH2 (SMILES CCCC[C@H](NC(=O)[C@H](Cc1ccccc1)NC(=O)[C@H](CCC(N)=O)NC(=O)[C@H](Cc1ccccc1)NC(=O)[C@H](C)NC(=O)[C@H](CC(C)C)NC(=O)[C@H](CC(C)C)NC(=O)[C@H](Cc1ccccc1)NC(=O)[C@H](CCC(=O)O)NC(=O)[C@H](CCCNC(=N)N)NC(=O)[C@H](CC(=O)O)NC(=O)[C@H](Cc1ccc(O)cc1)NC(=O)[C@H](CCCNC(=N)N)NC(=O)[C@H](CCCCN)NC(=O)[C@H](C)NC(=O)[C@H](CCCNC(=N)N)NC(=O)[C@@H](NC(=O)[C@H](CCCNC(=N)N)NC(=O)[C@H](CCC(=O)O)NC(=O)[C@H](CCCNC(=N)N)NC(=O)[C@H](CCCNC(=N)N)NC(=O)[C@H](CC(C)C)NC(=O)[C@H](CCCNC(=N)N)NC(=O)[C@H](CCCNC(=N)N)NC(=O)[C@H](CCCNC(=N)N)NC(=O)[C@H](CCC(N)=O)NC(=O)[C@H](CCCNC(=N)N)NC(=O)[C@H](CC(C)C)NC(=O)[C@H](CCCNC(=N)N)NC(=O)[C@H](CCCNC(=N)N)NC(=O)[C@H](CC(C)C)NC(=O)CNC(=O)[C@H](CC(C)C)NC(=O)[C@H](CC(=O)O)NC(=O)[C@H](Cc1ccc(O)cc1)NC(=O)[C@@H](NC(=O)[C@H](CCCNC(=N)N)NC(=O)[C@H](C)NC(C)=O)C(C)C)C(C)C)C(N)=O) [peptide of SEQ ID NO: 24] | 0.019 µM
Ac-KRYDREFLLAFQF[Nle]VYDLGLRRLRQRRRLRR-NH2 (SMILES CCCC[C@H](NC(=O)[C@H](Cc1ccccc1)NC(=O)[C@H](CCC(N)=O)NC(=O)[C@H](Cc1ccccc1)NC(=O)[C@H](C)NC(=O)[C@H](CC(C)C)NC(=O)[C@H](CC(C)C)NC(=O)[C@H](Cc1ccccc1)NC(=O)[C@H](CCC(=O)O)NC(=O)[C@H](CCCNC(=N)N)NC(=O)[C@H](CC(=O)O)NC(=O)[C@H](Cc1ccc(O)cc1)NC(=O)[C@H](CCCNC(=N)N)NC(=O)[C@H](CCCCN)NC(C)=O)C(=O)N[C@H](C(=O)N[C@@H](Cc1ccc(O)cc1)C(=O)N[C@@H](CC(=O)O)C(=O)N[C@@H](CC(C)C)C(=O)NCC(=O)N[C@@H](CC(C)C)C(=O)N[C@@H](CCCNC(=N)N)C(=O)N[C@@H](CCCNC(=N)N)C(=O)N[C@@H](CC(C)C)C(=O)N[C@@H](CCCNC(=N)N)C(=O)N[C@@H](CCC(N)=O)C(=O)N[C@@H](CCCNC(=N)N)C(=O)N[C@@H](CCCNC(=N)N)C(=O)N[C@@H](CCCNC(=N)N)C(=O)N[C@@H](CC(C)C)C(=O)N[C@@H](CCCNC(=N)N)C(=O)N[C@@H](CCCNC(=N)N)C(N)=O)C(C)C) [peptide of SEQ ID NO: 7] | 0.21 µM

The next lines start with the values.

IC50 | Binder
0.25 µM | Ac-GAAEAAARVYDLGLRRLRQRRYLRRELLRF-NH2 [peptide of SEQ ID NO: 26]
11 µM | Ac-GAAEAAAYVYDLLLRFLRQRRRLRRERVRA-NH2 [peptide of SEQ ID NO: 25]
